Results as given in publication doi:10.1101/2021.08.09.455663.

Columns and labels:
[1] = biological target: GST-tagged TgIST-R2 (Toxoplasma gondii); test: BLI
[2] = biological target: phosphorylated STAT1 dimer (pSTAT1d) (UniProt P42224); test: BLI

Substance | Kd [1] [µM] | Kd [2] [µM]
phosphorylated STAT1 dimer (pSTAT1d) (from UniProt P42224 132-713) (domain or fragment) | 0.022 | 
TgIST-R2 peptide after GST removal (domain or fragment) |  | 0.33
